T1: recombinant human TNFR2 with 6×his tag (human, UniProt P20333 23-257, limits assumed)
T1 construct: Bought (Reprokine, Israel); also called TNFR2-His; hTNFR2-His; not shown: 6xHis tag
T1 sequence (looked up): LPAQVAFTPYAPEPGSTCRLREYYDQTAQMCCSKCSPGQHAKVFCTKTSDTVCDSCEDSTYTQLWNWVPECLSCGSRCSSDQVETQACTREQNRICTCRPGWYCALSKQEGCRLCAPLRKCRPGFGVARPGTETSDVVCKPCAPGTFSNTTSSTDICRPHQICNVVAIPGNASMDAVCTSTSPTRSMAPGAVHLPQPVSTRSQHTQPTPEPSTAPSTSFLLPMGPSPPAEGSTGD

T2: human TNFR2 (residues 1-461) expressed on HEK-TNFR2 reporter cells (human, UniProt P20333 23-461)
T2 sequence (looked up): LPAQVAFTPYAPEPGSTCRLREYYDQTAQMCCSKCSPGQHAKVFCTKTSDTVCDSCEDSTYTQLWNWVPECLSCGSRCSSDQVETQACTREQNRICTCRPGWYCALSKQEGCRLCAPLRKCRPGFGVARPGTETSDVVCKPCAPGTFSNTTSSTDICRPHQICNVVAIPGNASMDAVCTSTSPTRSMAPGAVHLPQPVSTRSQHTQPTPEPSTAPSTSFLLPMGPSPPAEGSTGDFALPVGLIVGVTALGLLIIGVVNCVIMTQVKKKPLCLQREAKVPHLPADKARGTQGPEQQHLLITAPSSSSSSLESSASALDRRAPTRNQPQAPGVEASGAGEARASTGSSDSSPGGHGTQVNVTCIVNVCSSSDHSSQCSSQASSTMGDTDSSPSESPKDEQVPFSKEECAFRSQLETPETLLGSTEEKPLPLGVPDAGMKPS


Assays:
[1] = target: T1, recombinant human TNFR2 with 6×his tag; assay: ELISA, IgG coated, hTNFR2-His titrated, anti-His-HRP
Experimental: IgG binding affinity to TNFR2 was examined by ELISA. 96 well plates (Greiner Bio-One high binding) were coated with (50 ng/well) of the analyzed antibody and incubated overnight at 4° C. The plates were then washed three times with 300 μl PBS buffer containing 0.05% Tween 20 (PBS-T), blocked with 300μ PBS-T supplemented with 1% to 2% BSA, and incubated for 1 hour at room temperature. Antibodies-coated plates were washed three times with 300 μl PBS-T and incubated with serial dilutions of test ligand hTNFR2-His (Reprokine, Israel) in a final volume of […] for 1-2 hours. Plates were then washed three times with 300 μl PBS-T and incubated with 50 μl anti-HIS-HRP (Santa Cruz Biotechnology, USA, SC-8036HRP) conjugate that was diluted 1:250 in PBS. After an additional wash step of six washes, the reaction was developed with […] tetramethylbenzidine (TMB) reagent (Southern biotech, USA), and stopped with […] 0.5N H₂SO₄. Detection was done on a Synergy LX BioTek (BioTek, USA) plate reader with an absorbance filter set to […]. The binding affinity was determined by fitting the data to a specific binding non-linear regression model on Prisma 8 GraphPad software.
To test binding affinity of clones reformatted as IgG1 and IgG1LALA to TNFR2, an ELISA EC₅₀ binding experiment was conducted for each antibody.

[2] = target: T2, human TNFR2 (residues 1-461) expressed …; assay: cell-based or functional assay

Binder | EC50 [1] [nM] | Functional Agonism EC50 (nM), NFkB-SEAP reporter [2] [nM]
BDG30.089 (antibody, human IgG1, kappa, V domains shown, Human IgG1; also called IgG of CID_267) VH: EVQLVESGGGLVQPGGSLRLSCAASGFNIRDYYIHWVRQAPGKGLEWVADIDPTNGDTRYADSVKGRFTISADTSKNTAYLQMNSLRAEDTAVYYCSREGQDGYNAWDLWGQGTLVTVSS VL: DIQMTQSPSSLSASVGDRVTITCRASQDVSTAVAWYQQKPGKAPKLLIYPASSLYSGVPSRFSGSRSGTDFTLTISSLQPEDFATYYCQQHPYTPPTFGQGTKVEIKR | 50.4 | 
BDG30.202 (antibody, human IgG1, kappa, L234A L235A) heavy: not shown light: DIQMTQSPSSLSASVGDRVTITCRASQDISTAVAWSQQKPGKAPKLLIYSASSLYSGVPSRFSGSRSGTDFTLTISSLQPEDFATYYCQQPSLTPPTFGQGTKVEIKRTVAAPSVFIFPPSDEQLKSGTASVVCLLNNFYPREAKVQWKVDNALQSGNSQESVTEQDSKDSTYSLSSTLTLSKADYEKHKVYACEVTHQGLSSPVTKSFNRGEC |  | 2.9
BDG30.204 (antibody, human IgG1, kappa, L234A L235A) heavy: not shown light: DIQMTQSPSSLSASVGDRVTITCRASQDVSTAVAWYQQKPGKAPKLLIYPASSLYSGVPSRFSGSRSGTDFTLTISSLQPEDFATYYCQQPGYTPPTFGQGTKVEIKRTVAAPSVFIFPPSDEQLKSGTASVVCLLNNFYPREAKVQWKVDNALQSGNSQESVTEQDSKDSTYSLSSTLTLSKADYEKHKVYACEVTHQGLSSPVTKSFNRGEC |  | 3.1
BDG30.203 (antibody, human IgG1, kappa, L234A L235A) heavy: not shown light: DIQMTQSPSSLSASVGDRVTITCRASQDVSTAVAWSQQKPGKAPKLLIYPASSLYSGVPSRFSGSRSGTDFTLTISSLQPEDFATYYCQQPTLTPPTFGQGTKVEIKRTVAAPSVFIFPPSDEQLKSGTASVVCLLNNFYPREAKVQWKVDNALQSGNSQESVTEQDSKDSTYSLSSTLTLSKADYEKHKVYACEVTHQGLSSPVTKSFNRGEC |  | 0.5
BDG30.032 (antibody, human IgG1, kappa, Human IgG1; produced in HEK cells by Genscript; also called IgG of CID_436) heavy: not shown light: DIQMTQSPILLSASVGDRVTITCRASQDVSTAVAWSQQRTNGSPRLLIYSASSLYSGVPSRFSGSRSGTDFTLTISSLQPEDIADYYCQQPTYTPPTFGAGTKVEIKRTVAAPSVFIFPPSDEQLKSGTASVVCLLNNFYPREAKVQWKVDNALQSGNSQESVTEQDSKDSTYSLSSTLTLSKADYEKHKVYACEVTHQGLSSPVTKSFNRGEC | 21.9 | 0.85
BDG30.115 (antibody, human IgG1, kappa, L234A L235A) heavy: not shown light: DIQMTQSPILLSASVGDRVTITCRASQDVSTAVAWSQQRTNGSPRLLIYSASSLYSGVPSRFSGSRSGTDFTLTISSLQPEDIADYYCQQPTYTPPTFGAGTKVEIKRTVAAPSVFIFPPSDEQLKSGTASVVCLLNNFYPREAKVQWKVDNALQSGNSQESVTEQDSKDSTYSLSSTLTLSKADYEKHKVYACEVTHQGLSSPVTKSFNRGEC |  | 1
BDG30.084 (antibody, human IgG1, kappa, V domains shown, Human IgG1; also called IgG of CID_234) VH: EVQLVESGGGLVQPGGSLRLSCAASGFNIRAFYIHWVRQSPGKGLEWVADIDPTNGDTRYADSVKGRFTISADTSKNTAYLQMNSLRAEDTAIYYCTREGEDGYNAFDQWGQGTLVTVSS VL: DIQMTQSPILLSASVGDRVTITCRASQDVSTAVAWYQQRTNGSPRLLIYPASSLYSGVPSRFSGSRSGTDFTLTISSLQPEDIADYYCQQPRYTPPTFGAGTKVEIKR | 58.9 | 
BDG30.081 (antibody, human IgG1, kappa, V domains shown, Human IgG1; also called IgG of CID_231) VH: EVQLVESGGGLVQPGGSLRLSCAASGFNIRATYIHWVRQSPGKGLEWVADISPDNGDTRYADSVKGRFTISADTSKNTAYLQMNSLRAEDTAIYYCSRDLADGYNAFDLWGQGTLVTVSS VL: DIQMTQSPILLSASVGDRVTITCRASQDVSTAVAWSQQRTNGSPRLLIYSASSLYSGVPSRFSGSRSGTDFTLTISSLQPEDIADYYCQQHGYTPPTFGAGTKVEIKR | 50.7 | 

— US20230167188A1 (BIOLOJIC DESIGN, published 2023)
